# Test results reported in PMC3376392 (Nature, 2012).
# T1: NPR3 (Arabidopsis thaliana, UniProt Q8L746)
# T1 sequence (Q8L746 1-586): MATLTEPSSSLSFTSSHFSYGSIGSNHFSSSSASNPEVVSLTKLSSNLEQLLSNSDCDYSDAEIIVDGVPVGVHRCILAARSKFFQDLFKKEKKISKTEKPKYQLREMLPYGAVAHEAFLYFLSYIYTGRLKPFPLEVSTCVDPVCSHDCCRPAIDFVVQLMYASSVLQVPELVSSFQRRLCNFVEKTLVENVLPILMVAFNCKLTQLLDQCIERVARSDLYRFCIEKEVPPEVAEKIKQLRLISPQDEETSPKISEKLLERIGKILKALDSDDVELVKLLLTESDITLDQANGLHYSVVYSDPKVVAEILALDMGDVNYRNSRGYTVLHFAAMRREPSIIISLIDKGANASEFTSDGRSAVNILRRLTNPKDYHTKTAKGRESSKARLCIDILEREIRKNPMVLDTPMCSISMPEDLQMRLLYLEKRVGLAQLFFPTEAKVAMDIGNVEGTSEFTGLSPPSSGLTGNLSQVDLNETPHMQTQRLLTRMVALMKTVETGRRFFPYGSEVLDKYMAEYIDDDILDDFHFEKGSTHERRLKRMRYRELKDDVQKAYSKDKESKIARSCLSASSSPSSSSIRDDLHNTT
# T2: His-MBP-NPR1 (Arabidopsis thaliana, UniProt P93002 1-593)
# T2 sequence: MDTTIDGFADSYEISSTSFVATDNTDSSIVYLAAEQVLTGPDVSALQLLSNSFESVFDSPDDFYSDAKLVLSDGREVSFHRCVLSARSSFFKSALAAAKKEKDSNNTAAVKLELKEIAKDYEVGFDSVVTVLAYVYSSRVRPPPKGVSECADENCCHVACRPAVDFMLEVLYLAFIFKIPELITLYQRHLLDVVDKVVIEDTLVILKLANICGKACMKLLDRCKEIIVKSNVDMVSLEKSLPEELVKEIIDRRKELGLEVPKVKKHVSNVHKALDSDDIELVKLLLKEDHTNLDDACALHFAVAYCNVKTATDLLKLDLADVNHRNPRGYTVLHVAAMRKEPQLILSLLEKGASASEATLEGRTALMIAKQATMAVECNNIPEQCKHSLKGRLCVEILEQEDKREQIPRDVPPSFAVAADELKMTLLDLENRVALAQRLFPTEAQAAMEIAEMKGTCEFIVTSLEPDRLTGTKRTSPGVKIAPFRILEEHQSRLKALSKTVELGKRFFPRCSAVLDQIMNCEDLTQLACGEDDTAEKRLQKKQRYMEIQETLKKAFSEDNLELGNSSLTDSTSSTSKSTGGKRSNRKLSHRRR
# How the values were obtained:
# [1] = biological target: T1, NPR3; assay: [3H]-SA binding
# [2] = biological target: T2, His-MBP-NPR1; assay: pull-down
# [3] = biological target: the molecule itself; assay: SEC
molecule,measurement,setting,value
"O=C(O)c1ccccc1O [SA, Salicylic acid]",Kd,[1],981 nM
GST-NPR4 (natural protein) MAATAIEPSSSISFTSSHLSNPSPVVTTYHSAANLEELSSNLEQLLTNPDCDYTDAEIIIEEEANPVSVHRCVLAARSKFFLDLFKKDKDSSEKKPKYQMKDLLPYGNVGREAFLHFLSYIYTGRLKPFPIEVSTCVDSVCAHDSCKPAIDFAVELMYASFVFQIPDLVSSFQRKLRNYVEKSLVENVLPILLVAFHCDLTQLLDQCIERVARSDLDRFCIEKELPLEVLEKIKQLRVKSVNIPEVEDKSIERTGKVLKALDSDDVELVKLLLTESDITLDQANGLHYAVAYSDPKVVTQVLDLDMADVNFRNSRGYTVLHIAAMRREPTIIIPLIQKGANASDFTFDGRSAVNICRRLTRPKDYHTKTSRKEPSKYRLCIDILEREIRRNPLVSGDTPTCSHSMPEDLQMRLLYLEKRVGLAQLFFPAEANVAMDVANVEGTSECTGLLTPPPSNDTTENLGKVDLNETPYVQTKRMLTRMKALMKTVETGRRYFPSCYEVLDKYMDQYMDEEIPDMSYPEKGTVKERRQKRMRYNELKNDVKKAYSKDKVARSCLSSSSPASSLREALENPT,binding result,[2],binds
purified recombinant NPR4 protein (natural protein) MAATAIEPSSSISFTSSHLSNPSPVVTTYHSAANLEELSSNLEQLLTNPDCDYTDAEIIIEEEANPVSVHRCVLAARSKFFLDLFKKDKDSSEKKPKYQMKDLLPYGNVGREAFLHFLSYIYTGRLKPFPIEVSTCVDSVCAHDSCKPAIDFAVELMYASFVFQIPDLVSSFQRKLRNYVEKSLVENVLPILLVAFHCDLTQLLDQCIERVARSDLDRFCIEKELPLEVLEKIKQLRVKSVNIPEVEDKSIERTGKVLKALDSDDVELVKLLLTESDITLDQANGLHYAVAYSDPKVVTQVLDLDMADVNFRNSRGYTVLHIAAMRREPTIIIPLIQKGANASDFTFDGRSAVNICRRLTRPKDYHTKTSRKEPSKYRLCIDILEREIRRNPLVSGDTPTCSHSMPEDLQMRLLYLEKRVGLAQLFFPAEANVAMDVANVEGTSECTGLLTPPPSNDTTENLGKVDLNETPYVQTKRMLTRMKALMKTVETGRRYFPSCYEVLDKYMDQYMDEEIPDMSYPEKGTVKERRQKRMRYNELKNDVKKAYSKDKVARSCLSSSSPASSLREALENPT,stoichiometry N,[3],~4
